The values that follow come from PMC9817077, “Simple, Reliable Protocol for High-Yield Solubilization of Seedless Amyloid-β Monomer” (ACS Chemical Neuroscience, 2022).

Data set [1] in a line: Re-freezing of thawed aliquots (AF4-MALS and ThT). The settings on record: 50 mM NaOH, 5 min sonication; re-frozen in liquid N2, on pre-cooled metal or in a rack at −80 °C. The format is physicochemical. The method, then:
174 S6 Re-freezing of Aβ solubilized in 50 mM NaOH
177 used on multiple separate occasions. Aliquots that had been prepared by sonication for 5 min 178 in 50 mM NaOH were thawed and then re-frozen according to one of three methods: rapid 179 freezing by immersion in liquid N2 (freezing time < 1 s); freezing by placing the Eppendorf 180 tube in contact with pre-cooled metal at -80 °C (< 1 min); and simply placing the sample 181 in a rack in the -80 °C freezer (< 5 min). While the former was obviously preferable, the 182 other two methods were tested due to their convenience, and to ascertain whether improper […]
185 indistinguishable the results obtained with ﬁrst-use aliquots (Figures 3-4 in the main text), […]
Therefore, Aβ(1-42) aliquots
187 […] 188 convenient when performing a range of experiments requiring diﬀerent quantities of peptide.
190 temperature is -80 °C, use of liquid N2 is still recommended whenever possible.
The corresponding LS 90o signal. (c) The normalized ThT self-assembly kinetics. All panels use the same color scheme, which encodes the re-freezing method: red, placement in a rack in the -80 °C freezer; green, freezing by placement in contact with pre-cooled metal at -80 °C; blue, rapid freezing by immersion in liquid N2.
(§1) (1 picture or pasted object on this page, not shown here)

A short description of data set [2]: Negative-stain electron microscopy (NS-EM). The settings on record: 4 μM. The format is physicochemical. The method, then:
To perform a further test for the presence of seeds, and determine whether the detected oligomers affected the self-assembly kinetics, Aβ(1-42) samples were purified by SEC, and their self-assembly kinetics were compared to those of unpurified samples. In summary, following the protocol used by Hellstrand et al.,[39] […] The fraction eluting from 13.6 to 14.6 min (at 1 mL/min) was collected on ice, diluted variably (60, 80, or 100%, i.e., undiluted) in the elution buffer to give a range of concentrations, supplemented with ThT from a concentrated stock, and used in ThT assays. This purification procedure was repeated several times with reproducible results, and a representative elugram is shown in Figure 6a. The UV absorbance and RI elugrams are very similar to those previously reported for in-house recombinant peptide purified according to the same protocol,[39] and the peak at ∼14 min has already been identified as the monomer. […]
The resulting sample was deposited on grids immediately, or after incubation for 1 h in a 96-well plate treated with a PEG-like low-binding surface (Corning 3881, NY), at 37 °C. […] Micrographs were recorded with a 1024 × 1024 px Gatan CCD camera, and images were analyzed using FIJI.[100],[101]

For data set [3] the following is noted: cited from earlier work. The text has this: The concentration dependence is significant as it reflects the ... || The nature and reaction order of the dominant processes responsible for generating fibrils can be inferred from the scaling exponent γ, which relates the polymerization half-time to the initial monomer concentration, τhalf ∝ m0^γ. If secondary processes are negligible so that primary nucleation dominates, then γ = −nc/2, where nc is the effective order of primary nucleation.[91],[92] If most new fibrils are formed by fragmentation of existing fibrils, then γ = −1/2.[88],[89]

Data set [4] in a line: Removal of HMW material by ultracentrifugation, AF4-MALS and ThT. The settings on record: for integrated HMW UV signal after cross-flow, equivalent mass of Aβ(1-42): 200 µl injected. The format is physicochemical. The method, then:
4 S3 Removal of HMW material from 50 mM NaOH Aβ
5 preparations by ultracentrifugation
8 that attempts to remove any putative seed or oligomers had no impact on the self-assembly 9 kinetics. To complement this, and further explore the nature of the HMW contaminant that 10 eluted after cross-ﬂow in AF4 runs, we removed the HMW material by ultracentrifugation 11 and examined the eﬀect on the self-assembly kinetics. Firstly, an Aβ(1-42) sample was re-12 solubilized to a concentration of 1 mg/ml peptide by sonication for 5 min in 50 mM NaOH.
14 NaOH, centrifuged at 436,000g for 1 h, and examined by AF4-MALS and ThT assays. The 15 dilution was carried out to obtain a suﬃciently large volume for ultracentrifugation. As a 16 control, another aliquot from the same re-solubilized sample was diluted in the same manner, 17 and incubated in a centrifuge tube for the same period of time without ultracentrifugation.
18 Both samples were kept at 21 °C during ultracentrifugation/incubation. For the AF4-MALS 19 experiments, a larger-than-usual injection volume of 200 µl was used to ensure the same mass […]
21 the elugram. For the ThT assays, the buﬀer was pre-adjusted to account for the increased […]
24 the integral of the UV signal after cross-ﬂow; in the control, the integrated HMW signal was […]
26 so the true mass is unknown), whereas in the centrifuged sample the integral was equivalent […]
Similarly, ultracentrifugation caused an approximately 4× reduction
28 in the integral of the LS 90o signal. Although the composition and degree of homogeneity of […]
30 that the majority of this material was removed. Despite removal of this material, the treated […]
One possibility is that the HMW fraction
However, the fact that the full expected 20 µg of
Instead, it may consist of small quantities of dust
36 or pre-existing contaminants in the vials, which were resistant to 50 mM NaOH but had no 37 observable seeding potential. […]
the self-assembly kinetics. Panels show (a) the UV280 signal, (b) the LS 90o signal, (c) the approximate Mw distribution, derived from MALS analysis of the ROI from 3.3-12.0 min using a linear Zimm ﬁtting approach, and (d) the corresponding ThT self-assembly kinetics […]
Color scheme: red, 1 mg/ml sample before dilution (not included in ThT assay); green, 10× diluted 0.1 mg/ml sample, incubated for 1 h before use in experiments; blue, 10× diluted 0.1 mg/ml sample, centrifuged at 436,000g for 1 h and then used in experiments.
as §1

The mark [5] stands for this setting: 436,000g for 1 h against control.

With “Aβ(1-42): Ultrapure recombinant Aβ(1-42) purchased from rPeptide, lyophilized from HFIP; disordered amyloid-forming peptide”, the “AF4-MALS elugrams and ThT kinetics of re-frozen peptide against first-use aliquots” value in data set [1] is recorded as “indistinguishable”. Besides, in data set [2] (50 mM NaOH sample diluted into pre-adjusted fibrillization buffer pH 8), the “fibrillar species by NS-EM immediately after dilution” value is recorded as “did not reveal any fibrillar species”. In addition, the “fibrillar species by NS-EM after incubation” value in data set [2] (∼1 h under fibrillization conditions, 37 °C, early growth phase) is “fibrils were observed”. In data set [3] (high-quality in-house recombinant preparations, same experimental conditions), the “scaling exponent γ” value is “≈ −1.3”. Besides, in data set [3] (in-house recombinant preparations, ref Silvers et al. 75), the “fibrillization half-time τhalf” value is “≈ 2000 s”. The “integrated HMW UV signal after cross-flow, equivalent mass of Aβ(1-42)” value in data set [4] (0.1 mg/ml in 5 mM NaOH, centrifuged at 436,000g for 1 h, 21 °C) is on record as 0.365 µg. In addition, in data set [4] (setting [5]), the “reduction in the integral of the LS 90° signal by ultracentrifugation” value is given as “approximately 4 ×” and the “reduction in the integral of the UV signal after cross-flow by ultracentrifugation” value is listed as “approximately 3 ×”. Besides, the “integrated HMW UV signal after cross-flow, equivalent mass of Aβ(1-42)” value in data set [4] (control: 10× diluted to 0.1 mg/ml in 5 mM NaOH, incubated 1 h at 21 °C without ultracentrifugation) is recorded as 1.004 µg.
